From the DeepSol protein solubility set

Assay: soluble on expression in E. coli; label from the status in PepcDB or PDB records

GSHMGGWSIALHGGAGDIPFSLPPERRKPREEGLRHCLQIGVEALKAQKPPLDVVELVVRELENIEHFNAGIGSVLTNSGTVEMEASIMDGNTMKCGAVSGLSTVLNPISLARLVMDKTPHIYLAFQGAQDFAKQQGVETVDSSHLITAENVERLKLAIEANRVQVDYSQYNYPEPVKDDAEKELPLTNGDSQIG
soluble on expression in E. coli: soluble

VTALLDVNVLIALGWPNHVHHAAAQRWFTQFSSNGWATTPITEAGYVRISSNRSVMQVSTTPAIAIAQLAAMTSLAGHTFWPDDVPLIVGSAGDRDAVSNHRRVTDCHLIALAARYGGRLVTFDAALADSASAGLVEVL
soluble on expression in E. coli: not soluble

AHHHHHHGSDGLTAQEFLTLVKLERGMYLSKEEKDDVERIKEKNKRVLELIKDHHKDFDVYLTGHIDFDNLLTMYEIYKELKKRGVNVYYPGLFWANWREKGEIEYKIKNNAKILLVITQTISFGTSVDVGFFIHRKINEEEAKIVFCYTGPSYEFESLKTHPASIYIDYFTRDIEDAIEKTLEFLSL
soluble on expression in E. coli: soluble

GPGSMKGKAGRSIAAISDVRAAVLRFCDEQLSRRLDTQPVAEVHQKVSACVQTVDPAMTPYIFGSTAVLGVHEQGSDVDFVCLSPTDVQDGKGADAVSEVAKGLQSDFLFRLGEVVKREHYLWGIELVRRTRVPVLRVKGGLGVDGVSFDVTANRRNGVRNSALLRAYFTQCPEARWLSMLVKQWSKKTGLNASVEGGCITSYGWNIMIVYYLLRRRLVTLVPVESCDVADIAPMPPHMPLESLQQGGQGLADMLMDFVSYYLDEFAPETEVMSLTRAAGETTTEMLSWTKQAEDMARIRGEKIHYRWCIEDPYEYDLNVGRNVTPFKLMLLRKHLERARETALLLLATPPPSATARSVK
soluble on expression in E. coli: not soluble

MPLKPGANPYKILHLEKGCTDKEIQKAYRAQCLKWHPDKNLDNKEEAERRFIEAKEAFDFLYDKEKREEYDNREERIRMAQEHHSKRMAEADGKRKKLIEDLEKREKEFSNGGKRSADGSTPMTAAQQAKKKKTDQRNFKEEIEAIRRQLEKEVNEEVKQKATLMKTEREKHQKSQEKLTPRLLLKWKTSEGLDYSEDDIRKLFSTFGIISHISSAIEKKDRRKRILEFESGANAWGAELETGNAPMPEITCEWLQPPVETVKKASDEPVKSTNTGANNLEHMSLDDLEAQIMGGF
soluble on expression in E. coli: not soluble

MADQHPTAQRPIDAHGIIGDMRSAALVDDQGSIDFFCWPEFDSPSIFCSLLDSPAAGIFELAPVLADARRQQIYLPDSNVLQTRWLGTEAVVEVTDLLTIDDDPEQLPLLIRRVRVVSGQATLRLHCAPRLDYLEHHHHHH
soluble on expression in E. coli: not soluble

MGSDKIHHHHHHMSINDKEKKKLQRAILIIACEVARICKKNDIPYFINGGTQIGAVRHNGFIPWDDDFDIGFKRKDYEKFIKACDKDLNKDKFFLQTPETEEYYAFDFAKLQLKGTEIIEDFSKNVKIQHGIFVDLFPHDNIPDCKLKRKLFLFKNHLMKNILWVKCGYGEKKHKSKLSYKMVKFVSKFFSIKQIKQSRSKLLDKYNNTKTTQCIISDYPNDLIMNSWLDDLQLFRFEEVEFYGIKQYDAYLKSLYGDYMSLPPESERIVHSNYKIDFGLYDGLLEDMLYGNNI
soluble on expression in E. coli: not soluble

SANSGEGKVVCVTGASGYIASWLVKFLLSRGYTVKASVRDPSDPKKTQHLVSLEGAKERLHLFKADLLEQGSFDSAIDGCHGVFHTASPFFNDAKDPQAELIDPAVKGTLNVLNSCAKASSVKRVVVTSSMAAVGYNGKPRTPDVTVDETWFSDPELCEASKMWYVLSKTLAEDAAWKLAKEKGLDIVTINPAMVIGPLLQPTLNTSAAAILNLINGAKTFPNLSFGWVNVKDVANAHIQAFEVPSANGRYCLVERVVHHSEIVNILRELYPNLPLPERCVDENPYVPTYQVSKDKTRSLGIDYIPLKVSIKETVESLKEKGFAQF
soluble on expression in E. coli: soluble

MGSDKIHHHHHHMARANRHYIPGQVWHITHRCHKKEFLLKFARDRRRWLHWLFEAKKRFGLQVLNYAVTSNHVHLLVVDTKPEVVAKSIQLIAGRTAQEFNQRKDRKGAFWEDRYHATAIERNEHLVRCLVYIDLNMVRAGVVTHPAEWEMNGYNEIQNPPDRYAIIDRHSLFDACGFPDYGSFAEQHRKWVEDALKKGMNREGHWTESIAVGSSAFITDTQRKMGCSAKGRKLEEQVDGASFLREDAEPYHAHFTGKSEVLSPENAFFWDDYDVVPVG
soluble on expression in E. coli: not soluble

MGSDKIHHHHHHMSDKHYDALPKAHTTYANIVKSLLPIGNNGKISRDELPQATYFVDDLHIDQNNLNDYRKICGFADNGNVPITYFSVLSQALQMNMMVKEPFPFAMLGLVHVDNSVTQYRAIGEIETVAMSVMFDNLRDHAQGQQFDFVTTVKSADEIIWEGTSTYLSRSKKPATSKDKKSTPRPVTVKPSINKEGVHSIFEVPEDIGRRYAFVSGDFNLIHLHPLSARAFGFPKAIAHGMWSKAKCLAMMGELPDACTVEVSFKLPIFLPSEVELITDPLAQLSSTEDTCQFGLFSAKNDKPHLAGVIALRDENK
soluble on expression in E. coli: not soluble

MDMLKENVIQNNEARTESSVEPSHPDMMETVPEEQQKPISHIDDLLSETANLMAVKEQLLKEIAENEHIHSMQMRALQNLPQEAILPLQYHADPRRRHRMQKPESYKTVICQAWLESKTCAFAENCRFAHGEEELRPSLIEARQNNKYRTKLCDKYTTTGLCPYGKRCLFIHPDNGPNAYIRADKLFEVSQRHALADLRDQMEHHIMNGGRSTAGPQQFDMFARPCTPDEPAANMPLGPTPVSIRGPRYELPSKKPLETEEAGNRPPSSWPLDPSTFFALDSLNMATRPISPFESMLIGAAGNMQYSMLGKQSTPGGVSGYSSSGSTPSQDSDSSPLTAASAAADAACQANSESAQSILLKSINNPMIGNETTLPIPGLDQLAMDIAKHLELW
soluble on expression in E. coli: not soluble

MSTPLSRVITNEIFRVPARRKPKPAVKPSDIPTLKDYTARLVDQKWLRLAARRKSA
soluble on expression in E. coli: not soluble

MSKPKYPFEKRLEVVNHYFTTDDGYRIISARFGVPRTQVRTWVALYEKHGEKGLIPKPKGVSADPELRIKVVKAVIEQHMSLNQAAAHFMLAGSGSVARWLKVYEERGEAGLRALKIGTKRNIAISVDPEKAASALELSKDRRIEDLERQVRFLETRLMYLKKLKALAHPTKK
soluble on expression in E. coli: not soluble

MVALFQHSPYWQADGYGHSHRLKCQHFKQHRQYNDKLEISSNLGPQFNALLNILLNIVHPTLSHDTRRSKGLKIEGLLQSRELGNSWTVTMCIWVLKALQSSAPNKPLDWLDPMPCFQNLLARGTP
soluble on expression in E. coli: soluble

MAIFTDPIREHADFGPGDAEWLHLLVGDWQMVADLAFADLALWFPHPEFGYIALAHVRPSTSHTVFHADFVGEGIRSDLRPLVDKAWNSRSIERSSETSWSSEMALRVEAVPMVRNGRTLAVVTSHMDLSSSRMPSRLELTYRQCAYDLLRMGTLGLWPDFASPTGSRRGAPRVGDGLIRLDAEGIVQYASPNGVSAFRRLGEVESLEGRSLAEVTAGLLKDRRMVDETLPLVVTGRMPWRSEIESRGVSLSLRAIPLRDEQHRFGALVLCRDVSELRRREMELVTKDATIREIHHRVKNNLQTVAALLRMQSRRMVSDEAKQGLEQAMRRVATIALVHETLSQGLTQSVDFDELIGRQFRLSAEVASPSQQVRTERSGLFGELPSDFATPLALVINELVTNAVEHGLEGRTGTVWLLADRADGDGNDEFLTVTIADDGVGLPDGQYTEGLGLQIVRTLVTSELGGSIQWSPREGGGTAVEIVLNLARA
soluble on expression in E. coli: not soluble

AHHHHHHGSEFFEVLKKRRSIRRFQDKPVPRELIEKLLEAAFLSPSSYNKRPCHFIVVDDREKLEALSKSKLGASGLKTAPVAIVVTADESKSDVWIEDASIAAEHIHLASYALGLASFWVQIRNRMHNETKTAEEYVRELLNIPENYRVLCIIGVGYPAEDKPPHGNEVFEWEKVSYNEFGKRFK
soluble on expression in E. coli: soluble

GPGSMSSLTEGARASHTSSKEAGYYRLQSPKHINIDPCVYEIRTMRGSGPGGQGTNSSSNKVELRADMELLSEFFDEELLAALRRHEAGGALTNDGTTIVVSCHEHRSALQNKEGCLRKLQTLLHKASWVPPAEAGLVERPSFIVTEQKVRRRKKSNMNRMTRSARSGSW
soluble on expression in E. coli: soluble
